Measured values published in paper PMC9728165, “Improving Catalytic Efficiency and Changing Substrate Spectrum for Asymmetric Biocatalytic Reductive Amination” (Journal of Microbiology and Biotechnology, 2019).
Where a chain is given by its changes, count along the chain named. Numbers in names are those of the source.

B1: PheDH (Halalkalibacterium halodurans C-125) (protein)
chain: MLTKTPTVTSTLDIFTEMAEHEQVLFCHDPSSGLRAIIAIHDTTLGPALGGCRMYPYQTTEDALRDVLRLSKGMTQKCAAADVDFGGGKAVIIGDPAKDKSANLFRAFGQFVESLNGRFYTGTDMGTTMEDFVHALKETNGIVGIPKEYGGSGDSSVPTAKGVINSLKAISQVVLKDKQFSGRTYAIQGLGKVGFKVAEELLKEGNDLYVSDLQESLPLRLQQLGQRLGRHVEILHGDEIYEAAADVFVPCAQGAILNDATIARLKVKAIAGAANNQLEAERHGQMLHDQGIWFAPDYIVNSGGLIQVADELYGSNEKRVLSKTNAIYDTILEIFHQAERHHITTLQAANQLCERRIRERARRNNFFVNRIRPKWNLRK
B2: PheDH (Halalkalibacterium halodurans C-125; N276L) (protein)
chain: B1 chain with N276L
B3: PheDH (Halalkalibacterium halodurans C-125; E113D/N276L) (protein)
chain: B1 chain with E113D, N276L
B4: PheDH (Halalkalibacterium halodurans C-125; E113D) (protein)
chain: B1 chain with E113D

Experiments:
purified protein [1] = substrate: O=C(O)C(=O)Cc1ccccc1; test: purified protein; assay type: biochemical, Halalkalibacterium halodurans; conditions: reductive amination, 500 mM ammonia, 100 microM NADH, glycine-KCl-KOH pH 10.4, 25°C
purified protein [2] = substrate: N[C@@H](Cc1ccccc1)C(=O)O; test: purified protein; assay type: biochemical, Halalkalibacterium halodurans; conditions: oxidative deamination, 2 mM NAD+, 50 mM glycine-KCl-KOH pH 10.4, 25°C

| Protein | Km (purified protein [1]) | kcat (purified protein [1]) | Km (purified protein [2]) | kcat (purified protein [2]) |
| --- | --- | --- | --- | --- |
| B1 | 0.337 ± 0.05 mM | 10.296 ± 0.0167 s⁻¹ | 6.88 ± 0.41 mM | 2.4847 ± 0.0035 s⁻¹ |
| B2 | 1.05 ± 0.1 mM | 31.321 ± 0.0383 s⁻¹ | 8.71 ± 0.2 mM | 8.8435 ± 0.0687 s⁻¹ |
| B3 | 0.812 ± 0.01 mM | 39.0852 ± 0.0667 s⁻¹ | 5.14 ± 0.3 mM | 11.26 ± 0.055 s⁻¹ |
| B4 | 7.607 ± 0.2 mM | 25.1237 ± 0.0167 s⁻¹ | 8.28 ± 0.4 mM | 12.193 ± 0.005 s⁻¹ |
